Results as given in the nanobody polyreactivity screen of Harvey et al. (2022).

Assay: yeast display, Sf9 membrane polyspecificity reagent, FACS + sequencing; frameworks hold sequencing errors
Method in brief: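 Sorting gates, low and high (top ~1%), were placed on anti-HA fluorescence to track expression and on streptavidin fluorescence to track reagent binding. A clone's polyreactivity label is taken from the gate it came out of. The reagent was 10% biotinylated, detergent-solubilized Sf9 membrane, applied for 1 hour at 4 °C to galactose-induced yeast display cells.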

## QVQLVESGGGLVQAGGSLRLSCAASGSTFLPYVMGWYRQATGKERELVAAISRSGGRTYYADSVKGRFTISRDKAKNTVYLQMNRLKPEDTAVYYCNAVQRFYADYQPFAYWGQGTQLTVSS
  polyreactivity (PSR sort gate): high polyreactivity

## QVQLVESGGGLVQAGGSLRLSCAASGLIFENNAMGWYRQAPGKERELVAAITYSGGSTYYADSVKGRFTISRDNAKNTVYLQMNSLKPEDTAVYYCAAESYRRYGYDYWGQGTQVTVSS
  polyreactivity (PSR sort gate): high polyreactivity

## QVQLVESGGGLVQAGGSLRLSCAASGRTFTRYAMGWYRQAPGKERELVAAITSDGTTYYADSVKGRFTISRDNAKNTVYLQMNSLKPEDTAVYYCNAQYKFPDLGGYDYWGQGTQVTVSS
  polyreactivity (PSR sort gate): high polyreactivity

## QVQLVESGGGLVQAGGSLRLSCAASGSIFKTNAMGWYRQAPGKERELVAAITGSGGSTYYADSVKGRFTISRDNAKNTVYLQMNSLKPEDTAVYYCAKRSYRPILRWSYDYWGQGTQVTVSS
  polyreactivity (PSR sort gate): low polyreactivity

## QVPLVESGGGLVQAGGSLRISCAASGSILQYYALGWYRQAPGKERELVASISSSSGSTYYADSVKGRFTISRDNAKNTVYLQMNSLKPEDTAVYYCNARGWTLAADFGYWGQATQVTVSS
  polyreactivity (PSR sort gate): low polyreactivity

## HAQLQESGGGLVQAGGSLRRSFAASGSIFRFSGMGWYRRAPGKERELVASIGFGSITYYADRVKGRFTISRDNANNTVYLQMNSLKPEDTAVYYCAVQVQDESWLDYWGQGTQVTVSC
  polyreactivity (PSR sort gate): low polyreactivity

## QVQLVESGGGLVQAGGSLRLSCAASGSIFEYYAMGWYRQAPGKERELVASITSSGTTYYADSVKGRFTISRDNAKNTVYLQMNSLKPEDTAVYYCAAYFAYLDSYVTYEYDYWGQGTQVTVSS
  polyreactivity (PSR sort gate): low polyreactivity

## QVHLVESGGGLVQAGGSLRLSCSASGITFLTYTMGWYRQEPGKERELVASIRYSTGSTYYADSVKGRFTISRDNAKNTVYLQMNSLKPEDTAVYYCNDYSSYIKYDYWGQGTQVTVTS
  polyreactivity (PSR sort gate): high polyreactivity

## QDQLVESGGGLVQAGGSLRLSCAASGRFFKWYAMGWYRQAPGKEREFVAGISSSGTSTYYADSVKGRFTISRDNAKKTVSLQRNSLKPEDTAVYYCNKLGSTLDFGYWGQGTQVTVSS
  polyreactivity (PSR sort gate): high polyreactivity

## QVQLVESGGGLVQAGGSLRLSCAASGRIFYRYVMGWYREAPGKERELVAAIRNSGGSTYYADSVKGRFTISRDNAKNTVYLQMNSLKPEDTAVYYCAKRYGTSFYVGSAKIGYDYWGQGTQVTVSS
  polyreactivity (PSR sort gate): high polyreactivity

## QVQLVESGGGLVQAGGSLRLSCAASGSTIWRNTMGWYRQAPGKERELVADIRNVGSTYYADSVKGLFTISRDNAKNTVYLQMNSLKPEDTAVYYCYARWRFLYDYWGQGTQVTVSS
  polyreactivity (PSR sort gate): high polyreactivity

## QVQHVESGGGLVQAVGSLRLSCAASGRIVYYVMGWYRQAPGKERELVAAISTRGGSTYYADSVKGRFTISLDNAKNTVYLQMNSLTPEDTAVYYCAASSLLTRYNSWGQGTQVTVSS
  polyreactivity (PSR sort gate): high polyreactivity

## QVQLVESGGGLVQAGGSLRLSCAASGNTFTWYTMGWYRQAPGKERELVAVITSDGSTYYADSVKGRFTISRDNAKNTVDLQMNSLKPEDTAVYYCNALSADWYPEEDYWGQGTQVTVSS
  polyreactivity (PSR sort gate): low polyreactivity

## QVQLVESGGGLVQAGGSLRLSCAASGRTFYGNAMGWYRQAPGKERELVAAISWSGCGTYYADSVKGRFTISRDNAKNTVYLQMNSLKPEDTAVYYCARTLFGRSANRYGYWGQGTQVTVSS
  polyreactivity (PSR sort gate): high polyreactivity

## QVQLVESGGGLVQAGGSLRLSCAASGFTFWDYAMGWYRQAPGKERELVAAISSRGTRTYYADSVKGRFTISRDNAKNTVYLQMNSLKPEDTAVYYCATAIPDPDYIHNYWGQGTQVTVSS
  polyreactivity (PSR sort gate): high polyreactivity

## QVQLVESGGGLVQAGGSLRLSCAASGFILYSYAMGWYRQAPGKERELVAGISIGGITNYADSVKGRFTISRDNAKNTVYLQMNSLKPEDTAVYYCATDGTTYIWDGDYWGQGTQVTVSS
  polyreactivity (PSR sort gate): low polyreactivity

## QVQLVDSGGGLVQAGGSLRLSCAASGRIFLVNALGGSRQAPGKERELVAAISYRSGRTYSADSVKGRFTISRDTAKNTVYLQMNSLIPEDTAVYYCAAYTNVADMDYWGQGTQVTVSS
  polyreactivity (PSR sort gate): high polyreactivity

## QVQLVESGGGLVQAGGSLRLSCAASGLTFKVNPMGGYRQAPGKERELVPAISSGDRTYYADSVKGRFTISRDNAKNTVDLQMNSLKPEDTAVYYCNARGHNRYGTLLGFGRVPGYDYWGQGTQVTVSS
  polyreactivity (PSR sort gate): low polyreactivity

## QVQLVESGGGLVQAGGSLRLSCAASGRIFKGYAMGWYRKAPGKERELVAAITISGGSTYYADSVKGRFTISRDNAKNTVYLQMNSLIPEDTAVFYFAARKFVYWYGMEYWGQGTQVTVSS
  polyreactivity (PSR sort gate): low polyreactivity

## QVQLVESGGGLVQAGGSLSLSCAASGITFVFYTMGWYRQAPGKERELVAAISRSGASTYYADSVKGRFTISRDNAKNTVYLQMNSLKPQDTAVDYCAADRGYRFRMDYWGQGTQVTVSS
  polyreactivity (PSR sort gate): high polyreactivity

## QVQLVESGGGLVQAGGSLRLSCAASGSIFAVYAMGWYRQAPGKERELVASISRTGTTNYADSVKGRFTISRDNAKNTVYLQMNSLKPEDTAVYYCAADTWGLPDGYWYSEHPEFDYWGQGTQVTVSS
  polyreactivity (PSR sort gate): low polyreactivity

## QVQLVESGGGLVQAGGSLRLTCAASGSIFVGYAMGWYREAPGKEMELVAAITTRGDTTYYADSVKGRFTISRDNAKNTVYLQMNSLKPEHTAVYYCNTTSFFQAWPSDVQYDYWGQGTQVTVSS
  polyreactivity (PSR sort gate): low polyreactivity

## QVQLVESVGGLVQAGGSLRLSCAASGSIFGVYVMGWYRQAPGKERELVAAITRGASTNYADSVKGRFTISRDNAKNTVYLQMKSLKPEDTAVYYCAAEWWEEYGYYDDNDYWGQGTQVTVSS
  polyreactivity (PSR sort gate): low polyreactivity

## QVQLVESGGGLVQAGGSLRLSCAASGSTFDRYAMGWYRQAPGKERELVAAISWSGGSTYYADSVKGRFTISRDNAKNTVYLQMNSLKPEDTAVYYCARRYARITPVYAPLNYWGQGTQVTVSS
  polyreactivity (PSR sort gate): high polyreactivity

## QVQLVESGGGLVQAGGSLRLSCAASGSTLTYYAMGWYRQAPGKERELVAAISVSGGRTYYADSVKGRFTISRDNAKYTVYLQMNSLKPEDTAVYYCNALSSRAGGRGYDYWGQGTHVTVSS
  polyreactivity (PSR sort gate): high polyreactivity

## QVHLVESGGGLVQAGGSLRLSCAASGYRNAMGWYRQAPGKERELVAAISSGGSTYADSVKGRFTISRDNAKNTVYLQMNSLKPEDTAVYYCAAGPVPTYDYGNFDYWGQGTQVTVSS
  polyreactivity (PSR sort gate): low polyreactivity

## QVQLVESGGRLVQAGGSLRLSCAASGYTIDPYDMGWYRQAPGKERELVASISWSGGDTYYADSVKGRFTISRDNAKNTVYLQMNSLKPEDTAVYYCAADPGYPANRTEWSDFDYWGQGTQVTVSS
  polyreactivity (PSR sort gate): low polyreactivity

## QVQIVDSGGGLVQAGGSLRLSCDASGRLISRKAMGWYRQAPGKERELVAAITSGGSTYYADSVKGRFTISRDNAKNTVYLQMNSLKPEDTAVYYCAAVYRGVDSRWYCYDYWGQGTQVTVSS
  polyreactivity (PSR sort gate): low polyreactivity

## KVQLVESGGGLVQPGGSLRLSCASSGQTFTTNEMGWNRQAHGKERDLLAAISRRGSRTYYADSVKGRFTISRDNAKNSVFLQMNSLKPEDTAVYYCNALTGSFKTYSFDYWGQGTQVTVSS
  polyreactivity (PSR sort gate): high polyreactivity

## QVQLVESGGGLVQAGGSLRLSCAASGNIFWGNAMGWYRQAPGKERELVATITTGGSTNYADSVKGRFTISRDNAKNTVYLQMNSLKPEDTAVYYCNKRTTTASHLTSDYWGQGTQVTVSS
  polyreactivity (PSR sort gate): low polyreactivity

## QVQLEESGGGLVQAGRSLRLSCAASGRIFWRYVMGWYRQAPGKERELVAAINRNGDNTSYADSVKGRFTISRDTAKNTVYLQMNSLKPEHTEVHYCNADWWWGYGYWGQGTQVSVSS
  polyreactivity (PSR sort gate): low polyreactivity

## QVQLEESGGGLVQAGGSLRLSCAASGITFWHNTMGWYRQATGKEREMVAAISWTGGRTYYADSVKGRFTISRDNAKNTVYLQMNSLKPDDTAVYYCAADFSWTPSGNYDSWGQGTQVTVSS
  polyreactivity (PSR sort gate): low polyreactivity

## QVQLVESGGGLVQAGGSLRLSCAASGRTFGYYGLGWSRQAPGKERELVAAITGSGGSTYYADSVKGRFTISRDNAKNTVYLQMNSLKPEDTAVYYCNTARRHGQTQGGDYWGQGTQVTVSS
  polyreactivity (PSR sort gate): high polyreactivity

## QVQLVESGGGLVQAGGSLRLSCAASGSIFANNAMGWYRQAPGKERELVAAISSSGGSTYYADSVKGRFTISRDNAKNTVYLQMNSLKPEDTAVYYCAARFYYGRRYSTSYDYWGQGTQVTVSS
  polyreactivity (PSR sort gate): high polyreactivity

## QVQLVESGGGLVQAGGSLRLSCAASGIMFTSNTMGSYRQAPGKEREFVASINWNGSSTYADSVKGRFTISRDNAKNTDYLQMNSLKPEDTAVYYCNADYNRNSVQFSLYDYWGQGTQVTVSS
  polyreactivity (PSR sort gate): low polyreactivity

## QVQLVETGGALVQAGGSLRLSCAASGFTFIDYTMGCYSQAPGKERELVARITDTGSTNYADSVKVRFTISRDNAKNTVYLQMNSLKQEDTAVYYCNKDDRNDRTIPGYDPEYDYWGQGTQVTVSS
  polyreactivity (PSR sort gate): low polyreactivity

## QVQLVESGGGLVQAGGSLRLSCAASGRTFYPNTMGWYRQAPGKERELVATITRSGGTTYADSVKGRFTISRDNAKNTVYLQMHSLKPEDTAVYYCNADQRRYYWLVSQRYDYWGQGTQVTVSS
  polyreactivity (PSR sort gate): low polyreactivity

## QVQLVESWGGLVQAGGSLRLSCAASGRTFVTNAMGRYRQAPGTERELVAAISGSGGSTYYADSVTGRFTISRDNAKNTVYLQMNSLKPEDTAVYYCATSYSLGYARYGYWGQGTQVTVSS
  polyreactivity (PSR sort gate): high polyreactivity

## QVQLVESGGGLVQAGGSLRLSCAASGRTVSNYAMGWSRQAPGKERELVSAISTGGTSTYYADSVKGRFTISRDYAKNTVYLQMNSLKPEDTAVYYCIAVGGWVTHWLLREGDYWGQGTQVTVSS
  polyreactivity (PSR sort gate): low polyreactivity

## QVQLVESGGGLVQAGGSLRLSCAASGSIFPYYTMGWYRQAPGKERELVATITTGGSTNYADSVKGRFTISRDNAENTVYLQMNCLKPEDIAVYYCNKDGVVEVRFTGRQEYDYWGQGTQVTVSS
  polyreactivity (PSR sort gate): low polyreactivity

## QVQLVESGGGLVQAGGSLRLSCAASGRTFGRYAKGWYRQAPGKERELVAAISWSGGSTYYADSVKGRFTISRDNAKNTVYLQMNSLKPEDTAVYYCAAVTTDGVYAFDYWGQGTQVTVSS
  polyreactivity (PSR sort gate): low polyreactivity

## QVQLVESGGGLVQAGGSLRFSCAASGRIFTVNAMGWDRQARGKERELVASITGRGTRTYYADSVKGRFTISRDNAKNTVYLQMNSLKPEDTAVYYCAARAVKQYGNSYDYWGQGTQVTVSS
  polyreactivity (PSR sort gate): high polyreactivity

## QVQLVESGGGLVQAGGTLRLSCAASGSTFPRNTMGWYRHEPGKERELVAAISSSGVRTYYADSVKGRFTISRDNAKNTVYLQMNSLKAEDTAVYYCAAGSQSRDYYYWGQGTLVTVSS
  polyreactivity (PSR sort gate): high polyreactivity
